Test system: MS2 coat protein
Test: apparent KD of MS2 coat protein; designed switch direction (-1 OFF switch, 1 ON switch): -1; higher = weaker reporter binding
Outline: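 Designed RNA switches with common flanks were made on Illumina chips by stalled E. coli RNA polymerase. Titration with SNAP-549-labelled MS2 coat protein doubled from 0.7 or 1.5 nM up to 3 µM. Apparent KD is each design's median over clusters after curve-fitting normalised fluorescence.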

[1] = Eterna round: R95, input ligand: FMN 200 uM
[2] = Eterna round: R95, input ligand: microRNA oligo, concentration not stated
[3] = Eterna round: R95, input ligand: none
[4] = input ligand: microRNA oligo, concentration not stated

Sequence	apparent KD of MS2 coat protein [1] [µM]	apparent KD of MS2 coat protein [2] [µM]	apparent KD of MS2 coat protein [3] [µM]	apparent KD of MS2 coat protein (input ligand: FMN 200 uM) [µM]	apparent KD of MS2 coat protein [4] [µM]	apparent KD of MS2 coat protein (input ligand: none) [µM]
AGAGAGUCAGGAUAUCGAAGGGAGAGAAAAGGAGAGAGGUACGAGAAGGGACAUGAGGAUCACCCAUGUAGGUG [JR_Exclusion4)Sub015] (puzzle: Exclusion 4)	0.279	0.413	0.622			
AGAGUGCUGCGAGGAUAUACAUGAGGAUCACCCAUGUAAAAGUGUGAGGCAAAGCCUCACACUAUGUAGAAGGCGCAGUACUCA [Mat - Exclusion NG 2 - Mod of JL - D11] (Eterna round: R96, puzzle: Exclusion NG 2)				0.0202	0.0126	0.0193
AGAGUGCUGCGAGGAUAUACAUGAGGAUCACCCAUGUUAUCGUGUGAGGCUUUGCCUCACACGAAGUAGAAGGCGCAGUACUCA [Mat - Exclusion NG 2 - Mod of JL - D100] (Eterna round: R96, puzzle: Exclusion NG 2)				0.0134	0.00769	0.0142
AGAGUGCUGCGAGGAUAUACAUGAGGAUCACCCAUGUUUUCCUGUGAGGCAUAGCCUCACAGGAUGUAGAAGGCGCAGUACUCA [Mat - Exclusion NG 2 - Mod of JL - D29] (Eterna round: R96, puzzle: Exclusion NG 2)				0.0135	0.00944	0.0137
AGAGUGUGAGGAUAUAUGGUGAAGAUGAAGGGAUAGAAGGAGUAGAAGGUACAUGAGGAUCACCCAUGUUAGGA [JR_Exclu4_Sub076] (puzzle: Exclusion 4)		0.0231				
AGAUAGAGCUGAGGAUAUGAGAAUAGAAAGAAAUCAGAAGGCAGACAUGAGGAUCACCCAUGUGAGUUCUUGAGAUUACAUGGU [Prohibition 43 - Jieux - Exclusion NG 1] (Eterna round: R96, puzzle: Exclusion NG 1)				0.498	0.221	0.247
AGAUCACAUGAGGAUCACCCAUGUCAGGAUAUCGACUGAUCAGCUUCGGCUGAUCAGUCGAGAAGGGACAAUUA [E1/1-A2] (Eterna round: R97, puzzle: Exclusion 1)				0.511		0.28
AGAUCACAUGAGGAUCACCCAUGUGAGGAUAUAGAUUCAAGAGCUUCGGCUCUAAAGUCUAGAAGGCACUAUGA [EX1 #47] (Eterna round: R97, puzzle: Exclusion 1)				0.0291		0.0254
AGAUCACAUGAGGAUCACCCAUGUGAGGAUAUGAUACUAUGUACUUCGGUACAUAGUAUCAGAAGGCAUAUGAA [Ex1-3: 73] (puzzle: Exclusion 1)		0.0289				
AGAUCACAUGAGGAUCACCCAUGUGAGGAUAUGAUACUAUGUACUUCGGUACAUAGUAUCAGAAGGCAUGUGAA [Ex1-3: 74] (puzzle: Exclusion 1)		0.0427				
AGAUCACGAGGAUAUCCAGUGUAGUACAUGAGGAUCACCCAUGUUGAUCGUGGAUUCUUGGGAGAAGGCGUGGUUG [Eternabot (L2) Solution 100] (Eterna round: R97, puzzle: Exclusion 5)				0.237		0.0606
AGAUCGUCAGGAUAUACAUGAGGAUCACCCAUGUGUAGUCUAAAUUUGACUACAAUAUGUAGAAGGGACGAUCG [Exclusion 3 (MOD3 of #1 Marzena11)] (Eterna round: R97, puzzle: Exclusion 3)				0.0989		0.0428
AGAUGGCGAGGAUAUACAUGAGGAUCACCCAUGUGAAGAAGAAGAGUGAGGAAGAAAAGUAGAAGGCGCUGUCA [Mat - Exclusion 3 - Mod of Salish D30] (puzzle: Exclusion 3)	0.137	0.0458	0.0647			
AGAUGGCGAGGAUAUACAUGAGGAUCACCCAUGUGAAGAAGAAUAGUGAGGAAGAAAAGUAGAAGGCGCUGUCA [Mat - Exclusion 3 - Mod of Salish D32] (puzzle: Exclusion 3)		0.0494				
AGAUGGCGAGGAUAUACAUGAGGAUCACCCAUGUGAAGAUAAUAAGUGAGGAAGAAAAGUAGAAGGCGCUGUCA [Mat - Exclusion 3 - Mod of Salish D26] (puzzle: Exclusion 3)	0.398	0.0726	0.0704			
AGAUGUAGAUACCGAUCCUACAUGAGGAUCACCCAUGUAGCUAGACGUGCGCGCGUCGCUCGUCAGACUACCAGUAG [salish99_TOv1_r3_092] (puzzle: Sensor v3, turn-off variant 1)	0.33	0.296	0.157			
AGAUGUAGAUGCCGAUCCUACAUGAGGAUCACCCAUGUAGCUAGACGUGCGGGCGGCGCUCGUCGGACUACCAGUAG [salish99_TOv1_r3_097] (puzzle: Sensor v3, turn-off variant 1)	0.0788	0.0824	0.124			
AGAUUAAAAGUAAGGAUAUGCUUCCGGAAACGGAGGCAGAAGGUACAUGAGGAUCACCCAUGUUAAACUAAUUU [Explosion 5 - Jieux - Brourd's mod of Exclusion 4] (Eterna round: R97, puzzle: Brourd's mod of Exclusion 4)				0.0212		0.0153
AGAUUGAAUGAGGAUAUCGUUGCGGGUACGUAGCGAGAAGGCAUGACAUGAGGAUCACCCAUGUAGUGUGGGUU [JR_Ex6_Sub019] (Eterna round: R97, puzzle: Exclusion 6)				0.805		0.336
AGAUUGCAUGAGGAUAUCGUAUUAGAUAUAAUGCGAGAAGGCAUGACAUGAGGAUCACCCAUGUAGUGUUGGGA [JR_Ex6_Sub012] (Eterna round: R97, puzzle: Exclusion 6)				0.0751		0.0526
AGCAAGCUUUAAAGAUCCUACAUGAGGAUCACCCAUGUGCUCGUCUUAUAACGUACUGUGACGAAAGUCACGGUACG [JL TOV1 3.33] (Eterna round: R97, puzzle: Sensor, turn-off variant 1)				0.357		0.603
AGCAAGCUUUUAAGAUCCUACAUGAGGAUCACCCAUGUGCUCGUCUUAUAACGUACUGUGACGAAAGUCACGGUACG [JL TOV1 3.32] (Eterna round: R97, puzzle: Sensor, turn-off variant 1)				0.253		0.217
AGCAUCUGAGGAUAUACUGGGUAUGGAAGGCGAAGGGCCAGACAUGAGGAUCACCCAUGUAGAAGGCAGUUUGC [Esenonan] (Eterna round: R96, puzzle: Exclusion 2)				0.0392	0.042	0.0654

Source: the supplement of paper PMC9170038
